The text below walks through data of article PMC8585947, “Structure of Escherichia coli cytochrome bd-II type oxidase with bound aurachin D” (Nature Communications, 2021).

In data set [1] the target is T1, AppC, subunit of Escherichia coli cytochrome bd-II oxidase (E. coli, UniProt P26459 1-514).
T1 construct: AppC, cytochrome bd-II oxidase subunit, E. coli; predicted molecular mass 58.1 kDa; gene amplified from genomic DNA of strain BW25113; also called AppChis
T1 sequence: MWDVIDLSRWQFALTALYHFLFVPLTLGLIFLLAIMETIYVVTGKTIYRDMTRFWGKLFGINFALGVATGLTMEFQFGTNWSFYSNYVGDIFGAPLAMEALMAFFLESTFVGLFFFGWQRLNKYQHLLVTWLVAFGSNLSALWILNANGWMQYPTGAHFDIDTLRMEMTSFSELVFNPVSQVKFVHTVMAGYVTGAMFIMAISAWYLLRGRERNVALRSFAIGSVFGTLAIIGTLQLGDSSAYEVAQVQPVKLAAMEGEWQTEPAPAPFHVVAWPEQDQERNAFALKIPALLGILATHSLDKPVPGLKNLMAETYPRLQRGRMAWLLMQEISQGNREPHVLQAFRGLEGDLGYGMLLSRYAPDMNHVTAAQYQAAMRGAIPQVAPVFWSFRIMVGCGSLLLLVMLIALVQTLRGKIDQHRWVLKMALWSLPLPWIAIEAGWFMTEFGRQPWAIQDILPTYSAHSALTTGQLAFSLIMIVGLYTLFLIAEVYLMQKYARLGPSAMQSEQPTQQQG
Briefly: cryo-EM structure; bd-II in amphipol A8-35, 5.6 mg/mL, incubated with aurachin D; 20 mM MOPS, 20 mM NaCl, pH 7.0; C2 symmetry imposed; 3.0 Å. The conditions noted are these: both partners purified.

Data set [2] deals with the molecule itself. Described as above.

B1: AppB, subunit of Escherichia coli cytochrome bd-II oxidase (natural protein)
chain: not shown
notes: AppB, cytochrome bd-II oxidase subunit, E. coli; predicted molecular mass 42.4 kDa; gene amplified from genomic DNA of strain BW25113
With B1, the binding result in data set [1] is given as “binds”.

B2: AppX, single helix subunit of Escherichia coli cytochrome bd-II oxidase (natural protein, E. coli)
chain: MWYLLWFVGILLMCSLSTLVLVWLDPRLKS
notes: AppX, cytochrome bd-II oxidase subunit, E. coli; length of 30 amino acid residues; predicted molecular mass 3.6 kDa; gene amplified from genomic DNA of strain BW25113
On to B2, for which the binding result in data set [1] and in data set [2] was “binds” throughout.
